Measurements reported in patent US20260184748A1 (University of Pennsylvania, published 2026).
Where no end group is shown, it is not given here.

What was measured:
Assay in all cases: cell-based or functional assay
[1] = molecular target: MC5R (UniProt P33032 1-325)
[2] = molecular target: T1, EDG7 (UniProt Q9UBY5 1-353)
T1 sequence (looked up): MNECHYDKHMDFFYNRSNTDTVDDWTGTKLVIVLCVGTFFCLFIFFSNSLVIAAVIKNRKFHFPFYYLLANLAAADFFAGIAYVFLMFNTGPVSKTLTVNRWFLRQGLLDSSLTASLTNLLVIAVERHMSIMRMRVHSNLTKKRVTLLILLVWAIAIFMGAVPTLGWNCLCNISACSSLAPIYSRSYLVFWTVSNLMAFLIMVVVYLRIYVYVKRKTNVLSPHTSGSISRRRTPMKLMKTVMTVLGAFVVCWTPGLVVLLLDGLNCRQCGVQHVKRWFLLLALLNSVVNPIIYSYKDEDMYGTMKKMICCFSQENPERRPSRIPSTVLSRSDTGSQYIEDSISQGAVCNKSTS

[3] = molecular target: T2, ADRA2B (UniProt P18089 1-450)
T2 sequence (looked up): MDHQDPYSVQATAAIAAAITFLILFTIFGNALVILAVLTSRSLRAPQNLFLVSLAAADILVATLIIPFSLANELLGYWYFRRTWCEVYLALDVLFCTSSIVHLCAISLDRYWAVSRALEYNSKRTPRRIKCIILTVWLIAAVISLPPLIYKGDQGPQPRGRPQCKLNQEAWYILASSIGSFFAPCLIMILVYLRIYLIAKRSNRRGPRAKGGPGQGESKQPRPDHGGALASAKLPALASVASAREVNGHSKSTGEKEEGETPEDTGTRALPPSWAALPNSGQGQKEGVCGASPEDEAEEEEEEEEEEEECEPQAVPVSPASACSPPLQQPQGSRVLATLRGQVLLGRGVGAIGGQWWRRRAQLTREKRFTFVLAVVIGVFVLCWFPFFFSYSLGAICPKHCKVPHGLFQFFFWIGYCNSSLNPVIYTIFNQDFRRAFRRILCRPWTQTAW

[4] = molecular target: EBI2 (UniProt P32249 1-361)
Sequence of EBI2 (P32249 whole entry): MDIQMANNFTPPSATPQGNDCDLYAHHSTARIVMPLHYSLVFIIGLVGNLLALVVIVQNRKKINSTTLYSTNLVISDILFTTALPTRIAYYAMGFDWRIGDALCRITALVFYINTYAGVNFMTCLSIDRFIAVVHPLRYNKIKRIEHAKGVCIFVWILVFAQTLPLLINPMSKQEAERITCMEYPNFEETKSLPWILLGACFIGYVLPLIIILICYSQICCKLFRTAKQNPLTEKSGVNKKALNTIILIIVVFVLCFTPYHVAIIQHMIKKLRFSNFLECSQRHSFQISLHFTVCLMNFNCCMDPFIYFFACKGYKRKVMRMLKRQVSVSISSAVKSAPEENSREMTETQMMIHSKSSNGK

[5] = molecular target: PTGER2 (UniProt P43116 1-358)
Sequence of PTGER2 (P43116 whole entry): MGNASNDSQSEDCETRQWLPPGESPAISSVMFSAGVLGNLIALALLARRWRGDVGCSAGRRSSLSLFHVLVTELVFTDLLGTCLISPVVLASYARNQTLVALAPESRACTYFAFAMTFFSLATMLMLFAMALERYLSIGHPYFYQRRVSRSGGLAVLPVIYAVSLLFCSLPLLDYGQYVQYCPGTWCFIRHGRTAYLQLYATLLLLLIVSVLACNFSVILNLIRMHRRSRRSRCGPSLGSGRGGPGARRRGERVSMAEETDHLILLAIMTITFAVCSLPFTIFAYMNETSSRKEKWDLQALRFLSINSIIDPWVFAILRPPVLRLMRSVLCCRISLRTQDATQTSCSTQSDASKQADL

[6] = molecular target: T3, GALR2 (UniProt O43603 1-387)
T3 sequence (looked up): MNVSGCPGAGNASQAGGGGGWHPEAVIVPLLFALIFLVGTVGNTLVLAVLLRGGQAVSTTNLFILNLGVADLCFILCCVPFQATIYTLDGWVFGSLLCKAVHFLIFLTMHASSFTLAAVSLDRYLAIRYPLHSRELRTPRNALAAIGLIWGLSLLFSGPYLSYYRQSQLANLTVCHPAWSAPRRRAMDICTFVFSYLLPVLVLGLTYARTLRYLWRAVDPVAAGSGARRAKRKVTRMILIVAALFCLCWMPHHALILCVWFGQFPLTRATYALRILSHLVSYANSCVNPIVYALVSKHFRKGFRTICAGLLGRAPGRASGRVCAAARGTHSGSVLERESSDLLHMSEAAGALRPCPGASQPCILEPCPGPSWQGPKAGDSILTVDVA

[7] = molecular target: T4, CHRM5 (UniProt P08912 1-532)
T4 sequence (looked up): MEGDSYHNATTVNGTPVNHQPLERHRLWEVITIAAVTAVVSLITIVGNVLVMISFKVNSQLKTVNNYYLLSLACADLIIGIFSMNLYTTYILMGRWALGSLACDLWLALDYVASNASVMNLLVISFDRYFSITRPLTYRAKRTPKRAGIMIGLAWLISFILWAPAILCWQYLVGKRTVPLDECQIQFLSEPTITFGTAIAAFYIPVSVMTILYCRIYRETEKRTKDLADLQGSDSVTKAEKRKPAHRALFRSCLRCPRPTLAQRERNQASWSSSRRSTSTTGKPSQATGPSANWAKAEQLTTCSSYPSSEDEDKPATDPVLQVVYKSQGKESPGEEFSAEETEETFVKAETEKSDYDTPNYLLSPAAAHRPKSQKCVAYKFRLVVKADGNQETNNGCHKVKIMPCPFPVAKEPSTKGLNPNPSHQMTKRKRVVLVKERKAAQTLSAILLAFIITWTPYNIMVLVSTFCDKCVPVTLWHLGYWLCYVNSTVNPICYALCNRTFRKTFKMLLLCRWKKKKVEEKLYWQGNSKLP

[8] = molecular target: T5, CHRM2 (UniProt P08172 1-466)
T5 sequence (looked up): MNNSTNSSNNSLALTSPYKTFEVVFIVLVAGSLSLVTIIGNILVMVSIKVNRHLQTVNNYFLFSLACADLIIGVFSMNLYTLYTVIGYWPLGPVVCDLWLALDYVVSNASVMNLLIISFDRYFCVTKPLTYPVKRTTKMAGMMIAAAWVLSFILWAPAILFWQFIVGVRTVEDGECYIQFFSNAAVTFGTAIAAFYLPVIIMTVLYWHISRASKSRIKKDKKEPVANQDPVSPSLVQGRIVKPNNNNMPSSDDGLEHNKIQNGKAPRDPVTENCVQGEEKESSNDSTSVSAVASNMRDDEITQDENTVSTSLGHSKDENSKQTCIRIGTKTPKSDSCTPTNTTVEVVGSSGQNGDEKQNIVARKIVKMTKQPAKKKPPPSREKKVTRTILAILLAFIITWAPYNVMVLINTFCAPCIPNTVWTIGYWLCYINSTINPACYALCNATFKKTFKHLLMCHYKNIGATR

Sequence of MC5R (P33032 whole entry): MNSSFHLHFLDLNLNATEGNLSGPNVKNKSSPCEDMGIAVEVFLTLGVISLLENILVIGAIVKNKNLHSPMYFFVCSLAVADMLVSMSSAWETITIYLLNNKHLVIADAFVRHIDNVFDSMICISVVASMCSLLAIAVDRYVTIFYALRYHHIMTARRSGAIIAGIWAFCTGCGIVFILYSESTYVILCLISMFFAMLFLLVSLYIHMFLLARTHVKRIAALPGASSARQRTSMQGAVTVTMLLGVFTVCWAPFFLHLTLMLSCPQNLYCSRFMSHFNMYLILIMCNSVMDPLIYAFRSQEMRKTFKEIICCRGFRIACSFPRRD

In the case of QATVGDVNTDRPGLLDLK (also: synthesised on Rink amide resin, C-terminal amide not given here outright) [octadecaneuropeptide (ODN)], the “% Activity, arrestin, antagonist mode, 2.5 uM” value (“% Activity, arrestin” for short) [1] is reported as 5.9%, the “% Activity, arrestin” value [2] is reported as 5% and the “% Activity, arrestin” value [3] is reported as -36.8%. The “% Activity, arrestin” value [4] was -27.3%, the “% Activity, arrestin” value [5] was 2.1% and the “% Activity, arrestin” value [6] was -29.7%. The “% Activity, arrestin” value [7] was -1.5% and the “% Activity, arrestin” value [8] was 3.3%.
